# Like-named read-outs stand apart in the source and are kept apart here.
# Legend:
# [1] = set-up: method as in Chen et al., 2024; settings: week 16, ref Chen et al., 2024, cited from earlier work
# [2] = in vivo
# Description: The duration of each dose was 0.06 mg for three consecutive days, 0.1 mg for three consecutive days, 0.14 mg for five consecutive days, and 0.2 mg for five consecutive days (Figure 1).
# Blood samples (3 mL) were collected in vacuum tubes containing EDTA-K2 at D-1 and at pre-dosing (0 h) and 5, 10, 15, 20, 25, 30, 40, 50, 60, 90, 120, 150 and 180 min after first administration on D6, D7, D11, D12, and D16. PK blood samples were collected at the time point corresponding to the administration date for blank baseline correction on D-1. The vacuum tubes were pre-cooled in the refrigerator (2°C–8°C) for at least 0.5–1 h before use. As the stabilizer, 30 μL DPP IV inhibitor (10 μL/mL) was immediately added into the blood. The stabilizer-spiked blood samples were kept with wet ice during transportation and were centrifuged at 3,000 rpm for 10 min at 4°C to separate the plasma. Samples were stored at −80°C until analysis.
# The standard curve ranged from 2.0 to 100.0 pM. The accuracy of intra-batch and inter-batch assays values were −16.7%–20.0% and −6.7%–3.2%, respectively.
# The primary PK parameters were maximum observed concentration (Cmax), the area under concentration-time curve from 0 to the last measurable concentration (AUC0-t) and AUC0-inf, whereas the secondary PK parameters were median time to reach maximum concentration (Tmax), terminal half-life time (t1/2), Vz/F, apparent clearance rate (CL/F), terminal elimination rate (λz) and accumulation index (Rac).
# Paired t-tests were used to compare the primary PK parameters between the 0.14 mg and 0.2 mg dose groups. Three doses (0.1, 0.14 and 0.2 mg) were evaluated for proportional dose-response relationships using power model. […] Statistical analysis was performed using SAS 9.4 (SAS Institute, Cary, NC, United States).
# [3] = human, in vivo; cited from earlier work
# [4] = test system: adult subjects with overweight/obesity; settings: in vivo
# Description: (§1) This single center, open, multiple ascending dose study was conducted at the Phase I Clinical Research Center of the Affiliated Hospital of Qingdao University, Qingdao, China. […] The duration of each dose was 0.06 mg for three consecutive days, 0.1 mg for three consecutive days, 0.14 mg for five consecutive days, and 0.2 mg for five consecutive days (Figure 1). All volunteers were hospitalized 2 days before the first dosing and placed on a standardized diet during hospitalization. All participants were required to fast overnight before the first dosing.
# (§2) Safety assessments were conducted by monitoring physical examinations, vital signs (blood pressure, pulse rate, body temperature and respiratory rate), 12-lead ECG, clinical laboratory assays (blood routine, blood biochemistry and urine routine) and AEs. AEs were evaluated by the investigator throughout the study and the severity of AEs was defined in accordance with the Common Terminology Criteria for the Classification of Adverse Events of the National Cancer Institute (NCI CTCAE) version 5.0.
# [5] = test system: adult subjects with overweight/obesity; test: Safety assessment (adverse events, NCI CTCAE 5.0), phase I multiple ascending dose trial; settings: N = 16
# Description: as §1, §2
# [6] = Total, 0.06-0.2 mg sc three times daily
substance,measurement,setting,value
recombinant human GLP-1 (7-36) [beinaglutide],mean weight reduction,[1]; female participants,−6.9%
same,mean weight reduction,[1]; male participants,−4.7%
same,"Estimate of slope β1, Ln (AUC0-inf), proportional dose-response (power model)",[2],1.01
same,"Estimate of slope β1, Ln (AUC0-t,adj), proportional dose-response (power model)",[2],1.13
same,"Estimate of slope β1, Ln (Cmax), proportional dose-response (power model)",[2],1.13
same,arithmetic mean of CL/Fadj,[2]; sc,6.81 to 7.66 L/min
same,arithmetic mean of Vz/Fadj,[2]; sc,292.55 to 401.87 L
same,"arithmetic mean of t1/2, adj",[2]; sc,29.64 to 42.35 min
same,median of Tmax,[2]; sc,10 to 15 min
same,"median of Tmax,adj",[2]; sc,10 to 15 min
same,apparent volume of distribution (Vz/F),[3],379 L
same,time to relief of nausea,[4],≤ 1 h
same,"AEs leading to death, % of subjects with event",[5]; 0.06 mg sc three times daily,0.0%
same,"AEs leading to death, E (number of events)",[5]; 0.06 mg sc three times daily,0
same,"AEs leading to death, n (subjects with event)",[5]; 0.06 mg sc three times daily,0
same,"Drug-related AEs leading to death, % of subjects with event",[5]; 0.06 mg sc three times daily,0.0%
same,"Drug-related AEs leading to death, E (number of events)",[5]; 0.06 mg sc three times daily,0
same,"Drug-related AEs leading to death, n (subjects with event)",[5]; 0.06 mg sc three times daily,0
same,"AEs leading to death, % of subjects with event",[5]; 0.1 mg sc three times daily,0.0%
same,"AEs leading to death, E (number of events)",[5]; 0.1 mg sc three times daily,0
same,"AEs leading to death, n (subjects with event)",[5]; 0.1 mg sc three times daily,0
same,"Drug-related AEs leading to death, % of subjects with event",[5]; 0.1 mg sc three times daily,0.0%
same,"Drug-related AEs leading to death, E (number of events)",[5]; 0.1 mg sc three times daily,0
same,"Drug-related AEs leading to death, n (subjects with event)",[5]; 0.1 mg sc three times daily,0
same,"AEs leading to death, % of subjects with event",[5]; 0.14 mg sc three times daily,0.0%
same,"AEs leading to death, E (number of events)",[5]; 0.14 mg sc three times daily,0
same,"AEs leading to death, n (subjects with event)",[5]; 0.14 mg sc three times daily,0
same,"Drug-related AEs leading to death, % of subjects with event",[5]; 0.14 mg sc three times daily,0.0%
same,"Drug-related AEs leading to death, E (number of events)",[5]; 0.14 mg sc three times daily,0
same,"Drug-related AEs leading to death, n (subjects with event)",[5]; 0.14 mg sc three times daily,0
same,"AEs leading to death, % of subjects with event",[5]; 0.2 mg sc three times daily,0.0%
same,"AEs leading to death, E (number of events)",[5]; 0.2 mg sc three times daily,0
same,"AEs leading to death, n (subjects with event)",[5]; 0.2 mg sc three times daily,0
same,"Drug-related AEs leading to death, % of subjects with event",[5]; 0.2 mg sc three times daily,0.0%
same,"Drug-related AEs leading to death, E (number of events)",[5]; 0.2 mg sc three times daily,0
same,"Drug-related AEs leading to death, n (subjects with event)",[5]; 0.2 mg sc three times daily,0
same,"AEs leading to death, % of subjects with event",[5]; [6],0.0%
same,"AEs leading to death, E (number of events)",[5]; [6],0
same,"AEs leading to death, n (subjects with event)",[5]; [6],0
same,"Drug-related AEs leading to death, % of subjects with event",[5]; [6],0.0%
same,"Drug-related AEs leading to death, E (number of events)",[5]; [6],0
same,"Drug-related AEs leading to death, n (subjects with event)",[5]; [6],0

# From publication PMC11375898 (Frontiers in Pharmacology, 2024)
